# Laboratory results: patent publication US20170052184A1 (published 2017)
# B1: HCV 208A-422 (antibody, V domains shown)
# VH: DVQLQESGPGLVNPSQSLSLTCSVTGYSITSGYYWIWIQQSPGNKLEWMGYIKYDGGNNYSPSLKNRISIARDTSKNQCFLKLNSVTIEDTATYYCTRGSDSFDYWGQGTTLTVSS
# VL: DIVLTQSPASLAVSLGQRAIISCKASQSVSFAGTNLMHWYQQKPGQQPKLLIYRASNLETGVPTRFSGSGSRTDFTLNIHPVEEDDAATYYCQQSREYYTFGGGTKLEIKR
# B2: HCV 208A-442 (antibody, V domains shown)
# VH: DVQLQESGPGLVNPSQSLSLTCSVTGYSITSGYYWIWIRQFPGNKLEWMGYIKYDGGNNYSPSLKNRISIARDTSKNQFFLKLNSVTIEDTATYYCTRGSDSFDYWGQGTTLTVSS
# VL: DIVLTQSPASLAVSLGQRAIISCKASQSVSFAGTNLMHWYQQKPGQQPKLLIYRASNLETGVPTRFSGSGSRTDFTLNIHPVEEDDAATYYCQQSREYYTFGGGTKLEIKR
# B3: HCV 208B-793 (antibody, V domains shown)
# VH: EVKLVESGGGLVQPGGSLKLSCAASGFTFSSYAMSWVRQTPERRLEWVTYISNGGGSTYYSDTVKGRFTFSRDNAKNTLYLQMSSLKSEDTAMYYCARHGLGRTGFASWGQGTLVTVSA
# VL: DIVMTQSHKFMSTSVGDRVSITCKASQDVGTAVAWYQQKPGQSPKLLIYWASTRHTGVPDRFTGSGSGTDFTLTISNVQSEDLADYFCQQYSNYLTFGAGTKLEVKR
# B4: HCV 208A-692 (antibody, V domains shown)
# VH: QGQMQQSGAELAKPGASVKLSCKTSGFTFSSSYISWLKQKPGQSLEWIAWIFAGTGNTNYNQKFTDKAQLTVDTSSSTAYMQLSSLTTEDSAIYYCAISGTGFTYWGQGTLVTVSA
# VL: EVLMTQSPLSLPVSLGDQASISCRSSQSLEHSNGNTYLEWFLQRPGQPPKLLIYKVSSRFSGVPDRFSGSGSGTDFTLKISRVEAEDLGVYYCFQGSHVPFTFGSGTKLAIKR
# B5: HCV 208B-826 (antibody, V domains shown)
# VH: DVQLVESGGGLVQAGGSRKLSCAASGFPFSSFGMHWVRQAPEKGLEWVASISSRTSKIYYADNLKGRFTISRDNPKNTLFLQMTSLGSEDTAMYYCVRSVFGNSYWFFDVWGAGTTVTVSS
# VL: DIVLTQSPATLSVTPGDRVSLSCRASQRIYNYLHWYQQKSHESPRLLTKYASQSISGIPSRFSGSGSGTDFILTINSVETEDFGMYFCQQSNSWPLTFGAGTKLELRR
# B6: HCV 208A-207 (antibody, V domains shown)
# VH: QGQLQQPGAEFVKPGASLKLSCRASGYTFTSYWIHWVKQRPGQGLEWIGEIDPSDSYINQNQKFRGKATLTVDKSSSTAYMELSGLTSEDSAVYYCARHYYGVLDSWGQGTTLTVSS
# VL: DIVLTQSPATLSVTPGDRVSLSCRASQRIYNYLHWYQQKSHESPRLLTKYASQSISGIPSRFSGSGSGTDFILTINSVETEDFGMYFCQQSNSWPLTFGAGTKLELRR
# B7: HCV 208B-911 (antibody, V domains shown)
# VH: QVHLQQPGAELVRPGVSVKLSCKASGYTFTTYSINWMKQRPGQGLEWIGNIYPSTSHTNYNQKFRDKATMTVDKSSSTAYMQLSSPTSEDSAVYYCTINAYSMDYWGQGTSVTVSS
# VL: QIVLTQSPEIMSASPGEKVTITCSASSSVSFMYWFQQKPGTSPKLWIYITSNLASGVPTRFSGSGSGTSYSLTISRMEAEDAATYYCQQRSSFPYTFGGGTKLEMKR
# B8: HCV 208B-408 (antibody, V domains shown)
# VH: EVKLVESGGGLVQPGGSLRLSCASSGFTFTDYYMSWVRQPPGKALEWLGFIRNKAYGYTTEFSASVNGRFTISRDDSQSVPYLQMNTLRAEDSATYYCARVLYYDYGGFAYWGQGTLVTVST
# VL: DIQMTQSPASLSASVGETVTITCRASGNIHTYLAWYQQKQGKSPQLLVYNANTLADGVPSRFSGSGSGTQFSLKINSLQPDDFGSYYCQHFWSAPWTFGGGTQLEIKR
# B9: HCV 208B-178 (antibody, V domains shown)
# VH: DVKLVESGGGLVKLGGSLKLSCAASGFTFSSYYMSWVRQTPEKRLELVAAINSNGGSTYYPDTVKGRFTISRDNAKNTLYLQMSSLKSEDTALYYCARHGGLGRRDWYFDVWGAGTTVTVSS
# VL: DIVLTQSPASLAVSLGQRATISCRASESVDNYGISFMHWYQQKPGQPPKLLIYRASNLESGIPARFSGSGSRTDFTLTINPVETDDVATYYCQQSNKDPFTFGSGAKLEIKR
# B10: HCV 208A-874 (antibody, V domains shown)
# VH: QVQLQQPGAELVKPGASVKLSCKASGYTLSSYWMHWVKQRPGQGLEWIGEIHPSDSYTSYNQKFKDKATLTVDKSSSTAYMQLSSLTSEDSAVYYCARGGYYRYDEFAYWGQGTLVTVSA
# VL: DIVMTQSHKFMSTSIGDRVSITCKASQNVSPAVAWYQQKPGQSPKLLIYSASSRYTGVPDRFTGSGSGTAFTFTISSVQAEDLAVYFCQQHFSTPWTFGGGTMLEIKR
# B11: HCV 208A-126 (antibody, V domains shown)
# VH: QLQQSGPVLVKPGASVMISCKTSGYTFTENAMHWVKQSHGKSLEWIGGVNPNNGDTIFNQKFKGKATLTVDKSSNTAFTELRSLPSEESTVYYCVRRGLDFFDYWGQGTSVTVSS
# VL: DIVLTQSPASLAVSLGQRATISCRASQSVSTSRYSYMHWYQQKPGQPPKLLIKYASNLESGVPARFSGSGSGTDFTLNIHPVAEEDTAAYYCQHSWEFPFTFGSGTKLEIKR
# B12: HCV 208B-327 (antibody, V domains shown)
# VH: EVQLVESGGGLVKPGGSLKLSCAASGFTFSDSYMYWVRQTPDQRLEWVATISDGGSYTFYPDSVKGRFTISRDNAQNNLYLQMSSLKSEDTAMYYCASPHAGYFGWFAYWGRGTLVTVSA
# VL: DIVMTQAAFSNPVTPGTSVSISCRSSKSLLHSNGITYLYWYLQKPGQSPQLLIYQMSKIASGVPDRFRSSGSGTDFTLRISRVEAADVGVYYCAQNLELPWTFGGGTKLEIKR
# B13: HCV 208A-210 (antibody, V domains shown)
# VH: QVQLQQSGPELVKPGASMRISCKASGYTFTSYYVHWIKQRPGQGLEWIGCIYPGDVNTDYNEKFKGKATLTADKSSSTAYMQVSTLTSEDSAIYFCVLYYYGSFAYWGQGTLVTVSA
# VL: EIVLTQSPAITAASLGQNVTITCRASSSVSYMHWYRQKSGTSPQLWIYEISRRASGVPARFRASGSGTSYSLTISSMEAEDAAIYYCQQWNYPLTFGAGTKLEVKR
# B14: HCV 208A-210 (antibody, V domains shown)
# VH: QVQLQQSGPELVKPGASMRISCKASGYTFTSYYVHWIKQRPGQGLEWIGCIYPGDVNTDYNEKFKGKATLTADKSSSTAYMQVSTLTSEDSAIYFCVLYYYGSFAYWGQGTLVTVSA
# VL: EIVLTQSPAITAASLGQNVTITCRASSSVSYMHWYRQKSGTSPQLWIYEISRRASGVPARFRASGSGTSYSLTISSMEAEDAAIYYCQQWNYPLTFGAGTKLEVKR
# B15: HCV 208B-672 (antibody, V domains shown)
# VH: EVKLVESGGSLVQPGGSLKLSCAASGFNFNTYAMSWVRQTPEKRLEWVAYISNGGGNTYYVDTVKGRFTISRDNAKNTLYLRMSSLKSEDTAMYYCARHGLYWGYSMDYWGQGTSVTVSS
# VL: DIQMTQSPSSLSASLGERVSLTCRASQDIGGSINWLQQEPDGTIKRLIYATSSLDSGVPKRFSGSRSGSDYSLTISSLESEDFVDYYCLQYASSPPTFGGGTKLEIKR
# B16: HCV 208B-822 (antibody, V domains shown)
# VH: QVQLKQSGPGLVQPSQSLSITCTVSGFSLITYGVHWVRQSPGKGLEWLGVIWGGGSTGYNAAFVSRLNITKDNSKSQVFFKMNSLQPDDTAIYYCARNGGATVFDYWGQGTTLTVSS
# VL: DIVMTQSPATLSVTPGDRVSLSCRASQTISDYLHWYQQKSHESPRLLIKYASQSISGIPSRFSGSGSGSHFTLSINSVEPEDVGVYYCQNGHSFPWTFGGGTKLEIKR
# Legend:
# HCV Core1-169 [1] = target: T1, HCV Core1-169 (hepatitis C virus (HCV-1), UniProt P26664 1-169); assay: SPR sandwich, capture mAb C11-3
# T1 sequence: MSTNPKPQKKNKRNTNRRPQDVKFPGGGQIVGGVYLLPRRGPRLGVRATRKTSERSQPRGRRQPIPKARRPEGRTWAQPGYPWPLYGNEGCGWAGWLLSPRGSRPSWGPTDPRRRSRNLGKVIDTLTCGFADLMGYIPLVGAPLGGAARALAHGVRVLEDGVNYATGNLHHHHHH
# HCV Core1-169 [2] = target: T1, HCV Core1-169; assay: SPR sandwich, capture mAb C11-7
# HCV Core1-169 [3] = target: T1, HCV Core1-169; assay: SPR sandwich, capture mAb C11-9
# HCV Core1-169 [4] = target: T1, HCV Core1-169; assay: SPR sandwich, capture mAb C11-14
# [5] = target: T2, HCV bt-134-154 (Peptide 1, HCVc 134-154) (Hepatitis C virus (numbering per HCV-1), biotin (carboxy-terminal per; N-terminal per)); assay: EIA, captured mAb + biotin peptide
# T2 peptide: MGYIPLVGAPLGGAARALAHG
# [6] = target: T3, HCV bt-141-161 (Peptide 2, HCVc 141-161) (Hepatitis C virus (numbering per HCV-1), biotin (carboxy-terminal per; N-terminal per)); assay: EIA, captured mAb + biotin peptide
# T3 peptide: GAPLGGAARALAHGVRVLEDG
# [7] = target: T4, HCV bt-151-171 (Peptide 3, HCVc 151-171) (Hepatitis C virus (numbering per HCV-1), biotin (carboxy-terminal per; N-terminal per)); assay: EIA, captured mAb + biotin peptide
# T4 peptide: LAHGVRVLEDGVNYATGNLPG
Binder,expected percent binding (HCV Core1-169 [1]) [%],expected percent binding (HCV Core1-169 [2]) [%],expected percent binding (HCV Core1-169 [3]) [%],expected percent binding (HCV Core1-169 [4]) [%],Reactivity (OD 492 nm) [5] [OD units],Reactivity (OD 492 nm) [6] [OD units],Reactivity (OD 492 nm) [7] [OD units]
B1,≤ 1,≤ 1,≤ 1,≤ 1,–,–,–
B2,≤ 1,1.6,≤ 1,≤ 1,–,–,–
B3,–,–,–,–,0.09,0.72,0.09
B4,≤ 1,≤ 1,≤ 1,≤ 1,–,–,–
B5,–,–,–,–,0.53,1.35,0.08
B6,–,–,–,–,1.24,0.17,0.08
B7,–,–,–,–,0.09,0.09,0.71
B8,≤ 1,≤ 1,≤ 1,≤ 1,–,–,–
B9,≤ 1,1.7,≤ 1,≤ 1,–,–,–
B10,≤ 1,≤ 1,≤ 1,≤ 1,–,–,–
B11,1.2,2,≤ 1,1.3,–,–,–
B12,≤ 1,≤ 1,≤ 1,≤ 1,–,–,–
B13,1.2,1.6,≤ 1,≤ 1,–,–,–
B14,–,–,–,–,0.06,1.15,0.05
B15,–,–,–,–,0.08,2.79,0.1
B16,–,–,–,–,0.08,1.35,0.07
